Experimental findings from US20110104667 (INFOSCITEX CORPORATION, published 2011) are described below.

This series addresses recombinant anthrax protective antigen (rPA) (UniProt P13423 P13423:30-764). Kind of series: ELONA. The following applies: tags: MW about 83 kDa; label: 5' biotin.

Sequence of recombinant anthrax protective antigen (rPA) (P13423 30-764, one chain of several): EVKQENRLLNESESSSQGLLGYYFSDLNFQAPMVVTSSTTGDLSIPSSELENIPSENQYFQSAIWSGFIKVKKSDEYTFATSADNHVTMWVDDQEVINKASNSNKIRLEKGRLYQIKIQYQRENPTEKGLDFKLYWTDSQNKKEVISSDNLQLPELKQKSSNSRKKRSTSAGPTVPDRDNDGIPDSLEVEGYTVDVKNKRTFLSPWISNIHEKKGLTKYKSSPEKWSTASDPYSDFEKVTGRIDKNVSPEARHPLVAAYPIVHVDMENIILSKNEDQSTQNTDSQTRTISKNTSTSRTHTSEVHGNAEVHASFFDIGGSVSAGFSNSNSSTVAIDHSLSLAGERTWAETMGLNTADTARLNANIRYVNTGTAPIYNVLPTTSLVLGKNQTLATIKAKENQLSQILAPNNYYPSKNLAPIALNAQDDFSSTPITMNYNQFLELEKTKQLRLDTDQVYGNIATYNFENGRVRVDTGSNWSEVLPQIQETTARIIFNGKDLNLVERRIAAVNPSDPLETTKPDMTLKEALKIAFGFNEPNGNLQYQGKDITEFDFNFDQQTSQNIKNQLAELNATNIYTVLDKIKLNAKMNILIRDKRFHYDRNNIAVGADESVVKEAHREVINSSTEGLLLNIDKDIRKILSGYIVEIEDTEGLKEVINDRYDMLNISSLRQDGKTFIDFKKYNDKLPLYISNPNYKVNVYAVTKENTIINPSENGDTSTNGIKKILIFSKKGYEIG

B1: rPA DNA aptamer, biotinylated (ssDNA)
DNA: TACGACTCACTATAGGGATCCCGAGCTGCAATGGAGTGATTACTAGGGATGTGCGAGGCGCCGAATTCCCTTTAGTGAGGGTT
On to B1, for which the binding result is “binds”.
